Patent US20240166755A1, “CHIMERIC ANTIGEN RECEPTORS TARGETING CANCER” (University of Southern California, priority 2016, published 2024)

B1: CD8SP-178-(vL-vH)-Myc-CD28z-T2A-PAC(031615-R04) (scFv)
chain: DIVMTQAAPSIPVTPGESVSISCRSDKSLLHSNGNTYLFWFLQRPGQSPQLLIYRMSNLASGVPDRFSGSGSGTAFTLRISGVEAEDVGVYYCMQHLEYPYTFGGGTKLEIKGGGGSGGGGSGGGGSQVQLQQSGPELVKPGASVKMSCKASGYAFSSSWLNWVRQRPGKGLEWIGRIYPGDGENHYNGKFKGKATLTADKSSSTGYMQLSSLTSEDSAVYFCASYYEGGYWGQGTLITVSATREQKLISEEDLKIEVMYPPPYLDNEKSNGTIIHVKGKHLCPSPLFPGPSKPFWVLVVVGGVLACYSLLVTVAFIIFWVRSKRSRLLHSDYMNMTPRRPGPTRKHYQPYAPPRDFAAYRSRVKFSRSADAPAYQQGQNQLYNELNLGRREEYDVLDKRRGRDPEMGGKPRRKNPQEGLYNELQKDKMAEAYSEIGMKGERRRGKGHDGLYQGLSTATKDTYDALHMQALPPRSSGSGEGRGSLLTCGDVEENPG
B2: CD8SP-175-(vL-vH)-Myc-CD28z-T2A-PAC(031615-Q04) (scFv)
chain: DQIVLTQSPAIMSASPGEKVTISCSASSSVSYMYWYQQKPGSSPKPWIYRTSNLASGVPARFSGSGSGTSYSLTISNMEAEDAAAYYCQQYHSYPTTFGGGTKLEVKGGGGSGGGGSGGGGSEVQLVESGGGLVQPKGSLKLSCAASGFSFNTYAMNWVRQAPGKGLEWIAHIRSKSNNFATYYADSVKDRFSISRDASENILFLQMNNLKTEDTAMYYCVRQGGDFPMDYWGQGTSVTVSSTREQKLISEEDLKIEVMYPPPYLDNEKSNGTIIHVKGKHLCPSPLFPGPSKPFWVLVVVGGVLACYSLLVTVAFIIFWVRSKRSRLLHSDYMNMTPRRPGPTRKHYQPYAPPRDFAAYRSRVKFSRSADAPAYQQGQNQLYNELNLGRREEYDVLDKRRGRDPEMGGKPRRKNPQEGLYNELQKDKMAEAYSEIGMKGERRRGKGHDGLYQGLSTATKDTYDALHMQALPPRSSGSGEGRGSLLTCGDVEENPG
B3: CD8SP-161-(vL-vH)-Myc-CD28z-T2A-PAC(021715-Z07) (scFv)
chain: DDIQMTQSSSSFSVSLGDRVTITCMASEDIYIRLAWYQQKPGNAPRLLISAATSLETGVPSRFSGSGSGKDYTLSITSLQTEDVGTYYCQQYWSSPWTFGGGTKLEINGGGGSGGGGSGGGGSDVQLQESGPGLVKPSQSLSLTCTVTGYSITSDYTWNWIRQFPGNKLEWMGYITYSGSTSYNPSLKSRNSITRDTSKNQFFLQLNSVTTEDTATYYCARLGRRYTMDYWGQGTSVTVSSTREQKLISEEDLKIEVMYPPPYLDNEKSNGTIIHVKGKHLCPSPLFPGPSKPFWVLVVVGGVLACYSLLVTVAFIIFWVRSKRSRLLHSDYMNMTPRRPGPTRKHYQPYAPPRDFAAYRSRVKFSRSADAPAYQQGQNQLYNELNLGRREEYDVLDKRRGRDPEMGGKPRRKNPQEGLYNELQKDKMAEAYSEIGMKGERRRGKGHDGLYQGLSTATKDTYDALHMQALPPRSSGSGEGRGSLLTCGDVEENPG
B4: CD8SP-AB317-(vL-vH)-Myc-CD28z-T2A-PAC(031615-T04) (scFv)
chain: DIVLTQSPASLAVSLGQSVTISCRASESVEYYGTSLMQWYQQKPGQPPKLLIYGASNVESGVPARFSGSGSGTDFSLNIHPVEEDDIAMYFCQQSRKVPWTFGGGTKLEIKGGGGSGGGGSGGGGSEVKLVESGGGLVKPGGSRKLSCAASGFTFSSYTMSWVRQTPAKRLEWVATISSGSSTIYYADTVKGRFTISRDNAKNTLFLQMTSLRSEDTAMYYCARRWFLDCWGQGTTLTVSSTREQKLISEEDLKIEVMYPPPYLDNEKSNGTIIHVKGKHLCPSPLFPGPSKPFWVLVVVGGVLACYSLLVTVAFIIFWVRSKRSRLLHSDYMNMTPRRPGPTRKHYQPYAPPRDFAAYRSRVKFSRSADAPAYQQGQNQLYNELNLGRREEYDVLDKRRGRDPEMGGKPRRKNPQEGLYNELQKDKMAEAYSEIGMKGERRRGKGHDGLYQGLSTATKDTYDALHMQALPPRSSGSGEGRGSLLTCGDVEENPG
B5: CD8SP-12E10-(vL-vH)-Myc-CD28z-T2A-PAC(031615-S03) (scFv)
chain: DQVQLQQSGPGLVKPSETLSLTCTVSGDSISSYYWSWIRQPPGKGLEWIGYIYYSGSTNYNPSLKSRVTISVDTSKSQFSLKLSSVTAADTAVYYCARGRYFDVWGRGTMVTSSGGGGSGGGGSGGGGSSSYVLTQPPSVSGSPGQSITISCTGTSSDVGGYNYVSWYQQHPGKAPKLMIYEGSKRPSGVSNRFSGSKSGNTASLTISGLQAEDEADYYCSSYTTRSTRVFGGGTKLTVLGAAATREQKLISEEDLKIEVMYPPPYLDNEKSNGTIIHVKGKHLCPSPLFPGPSKPFWVLVVVGGVLACYSLLVTVAFIIFWVRSKRSRLLHSDYMNMTPRRPGPTRKHYQPYAPPRDFAAYRSRVKFSRSADAPAYQQGQNQLYNELNLGRREEYDVLDKRRGRDPEMGGKPRRKNPQEGLYNELQKDKMAEAYSEIGMKGERRRGKGHDGLYQGLSTATKDTYDALHMQALPPRSSGSGEGRGSLLTCGDVEENPG

Target: human MPL (thrombopoietin receptor) (human) (UniProt P40238)
Assay: cell-based or functional assay

GFP induction (%) in CAR-expressing Jurkat-NFAT-EGFP cells, target cell line HEL [%] | GFP induction (%) in CAR-expressing Jurkat-NFAT-EGFP cells, target cell line RAJI-Mpl [%] | GFP induction (%) in CAR-expressing Jurkat-NFAT-EGFP cells, target cell line RAJI-vector [%] | Binder
2 | 3 | 4 | B1
33 | 18 | 11 | B2
14 | 11 | 5 | B3
1 | 6 | 3 | B4
5 | 6 | 4 | B5
